Measurements from the supplement of paper PMC10126150.
± gives the standard deviation of the averaged measurements.

Test system: ATP
Assay: switch fluorescence ratio, 500 uM ATP over buffer (Cy3 cluster intensity, sum of 5 cycles each) (fold (ratio)); higher = stronger signal-on switching upon ATP binding; sequences stand for … in TCGTCGGCAGCGTCAGATGTGTATAAGAGACAGTTTTTTTTTTTTTTTTTTTTTTTTT…TC
Conditions: aptamer strand: ATP DNA aptamer (quencher-CACCTGGGGGAGTATTGCGGAGGAAGG + anchor), 100 nM annealed; ATP concentration: 500 uM
Procedure, shortened: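 Clusters with intensities outside 100-1000 RFU were excluded. The remaining Cy3-labelled switching-strand clusters on a modified Illumina MiSeq flow-cell had been annealed to 100 nM quencher-labelled ATP aptamer and imaged in selection buffer, then after 15 min with 500 uM ATP at 22 °C, for five cycles separated by NaOH stripping and re-annealing. The fluorescence ratio, averaged per switch-domain sequence, is each cluster's summed target-cycle Cy3 intensity over its summed buffer-cycle Cy3 intensity.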
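Further: ATP exposure 15 min at 22 °C before imaging.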

Row | Sequence | switch fluorescence ratio
1 | CCGGGGAAGT | 0.978 ± 0.031
2 | CCGGGGACTG | 1.1 ± 0.033
3 | CCGGGGATGT | 1.05 ± 0.04
4 | CCGGGGATTC | 1.36 ± 0.2
5 | CCGGGGGATG | 1.03 ± 0.042
6 | CCGGGGGGGG | 1.1 ± 0.17
7 | CCGGGGTAGA | 1.02 ± 0.023
8 | CCGGGGTCGG | 1.04 ± 0.057
9 | CCGGGGTGGT | 1.07 ± 0.035
10 | CCGGGTATTG | 1.027 ± 0.0036
11 | CCGGTAGGTA | 0.969 ± 0.011
12 | CCGGTATGGT | 1.012 ± 0.0077
13 | CCGGTCAGCC | 1.11 ± 0.039
14 | CCGGTCTACA | 1.05 ± 0.047
15 | CCGGTGAGGG | 0.999 ± 0.05
16 | CCGGTGCCAA | 3.85 ± 0.21
17 | CCGGTGTAGA | 1.01 ± 0.034
18 | CCGGTGTTTG | 0.987 ± 0.021
19 | CCGGTGTTTT | 1.06 ± 0.041
20 | CCGGTTTGGA | 1.13 ± 0.17
21 | CCGGTTTGGC | 1.062 ± 0.006
22 | CCGGTTTTTT | 1.003 ± 0.0078
23 | CCGTAATAGG | 4.83 ± 0.55
24 | CCGTAATCAG | 1.98 ± 0.14
25 | CCGTAATGTG | 1.5 ± 0.16

Row | Sequence | switch fluorescence ratio
26 | CCGTAGGAGG | 1 ± 0.021
27 | CCGTATATCC | 2.44 ± 0.16
28 | CCGTCGAATA | 2.2 ± 0.027
29 | CCGTCGATGG | 1.1 ± 0.036
30 | CCGTGAGGGT | 1.02 ± 0.038
31 | CCGTGGGACC | 1.11 ± 0.016
32 | CCGTGGGTAC | 5.55 ± 0.7
33 | CCGTGGTACC | 1.84 ± 0.12
34 | CCGTGGTTTT | 0.99133 ± 5.8e-05
35 | CCGTGTAAGC | 1.343 ± 0.0024
36 | CCGTGTTCGA | 1.01 ± 0.051
37 | CCGTTAGTAA | 3.13 ± 0.46
38 | CCGTTCGACA | 1.37 ± 0.058
39 | CCGTTGACCT | 1.073 ± 0.01
40 | CCGTTGAGTC | 1.06 ± 0.049
41 | CCGTTGGGGG | 1.01 ± 0.036
42 | CCGTTGTGGA | 1.038 ± 0.0027
43 | CCGTTGTTCG | 1.02 ± 0.027
44 | CCGTTGTTTG | 0.979 ± 0.011
45 | CCGTTTATAT | 1.4 ± 0.13
46 | CCGTTTTTAC | 4.11 ± 0.83
47 | CCGTTTTTAT | 1.01 ± 0.018
48 | CCTAAAAAGG | 1.26 ± 0.29
49 | CCTAAAGGCT | 1.0151 ± 4.7e-05
50 | CCTAAGTGTT | 1.06 ± 0.069

Row | Sequence | switch fluorescence ratio
51 | CCTAATCGGT | 1.006 ± 0.0095
52 | CCTAATGCCG | 0.996 ± 0.04
53 | CCTAGGGAAG | 0.9972 ± 0.0046
54 | CCTAGTAGCG | 1.01 ± 0.014
55 | CCTAGTTGGC | 1.03 ± 0.083
56 | CCTATAATAG | 1.17 ± 0.064
57 | CCTATAATAT | 1.05 ± 0.024
58 | CCTCAAAAAA | 2.98 ± 0.2
59 | CCTCATGACA | 1.263 ± 0.0096
60 | CCTCATGGCA | 2.11 ± 0.17
61 | CCTCATTGGT | 1.026 ± 0.0093
62 | CCTCGACAGC | 3.43 ± 0.42
63 | CCTCGCGGGG | 1.08 ± 0.032
64 | CCTCGGTATG | 1.24 ± 0.025
65 | CCTCGTGTTT | 1.08 ± 0.0061
66 | CCTCGTTGAA | 1.22 ± 0.026
67 | CCTCTACG | 1.41 ± 0.044
68 | CCTGAGAACA | 1.02 ± 0.031
69 | CCTGAGACAC | 1.08 ± 0.052
70 | CCTGAGGGAT | 1.86 ± 1.4
71 | CCTGAGTCTG | 1.57 ± 0.038
72 | CCTGCTGTCC | 1.16 ± 0.051
73 | CCTGGAAGCG | 1.08 ± 0.045
74 | CCTGGAGGGG | 1.07 ± 0.066
75 | CCTGGATCGG | 1.09 ± 0.048

Row | Sequence | switch fluorescence ratio
76 | CCTGGCGCTT | 2.06 ± 0.86
77 | CCTGGCGGCT | 1.06 ± 0.018
78 | CCTGGGAAGG | 0.991 ± 0.025
79 | CCTGGGGCAG | 1.17 ± 0.093
80 | CCTGGGGTTT | 1.09 ± 0.15
81 | CCTGGGTACC | 1.039 ± 0.0072
82 | CCTGGGTCTA | 1.03 ± 0.023
83 | CCTGGGTTAT | 1.02 ± 0.011
84 | CCTGGTTTTG | 1.04 ± 0.028
85 | CCTGGTTTTT | 1.12 ± 0.15
86 | CCTGTAAAGA | 1.02 ± 0.019
87 | CCTGTAGTCT | 1.04 ± 0.039
88 | CCTGTAGTTG | 1.04 ± 0.037
89 | CCTGTATCTT | 1.03 ± 0.018
90 | CCTGTCAGGC | 1.04 ± 0.026
91 | CCTGTCATCC | 1.17 ± 0.023
92 | CCTGTGATAT | 1.3 ± 0.031
93 | CCTGTGCAGG | 1.11 ± 0.02
94 | CCTGTGGATC | 1.05 ± 0.042
95 | CCTGTTACTT | 0.97 ± 0.04
96 | CCTGTTTTAC | 1.24 ± 0.045
97 | CCTTAAGTGT | 1.04 ± 0.041
98 | CCTTAATCTT | 0.987 ± 0.026
99 | CCTTACATCG | 1.12 ± 0.044
100 | CCTTACCTGT | 1.07 ± 0.065

Row | Sequence | switch fluorescence ratio
101 | CCTTAGATTA | 1.01 ± 0.031
102 | CCTTATCAGG | 1.04 ± 0.02
103 | CCTTCACCGT | 2.21 ± 0.14
104 | CCTTCAGCGT | 1.73 ± 0.086
105 | CCTTCCTTGT | 2.06 ± 0.031
106 | CCTTCGGAGT | 3.99 ± 2.3
107 | CCTTCTTTTT | 1.06 ± 0.12
108 | CCTTGCTGTG | 1.06 ± 0.039
109 | CCTTGTACTG | 1.07 ± 0.042
110 | CCTTGTATTT | 1.01 ± 0.018
111 | CCTTGTCGG | 1.07 ± 0.083
112 | CCTTGTGTTG | 1.01 ± 0.017
113 | CCTTTGGGCA | 1.05 ± 0.023
114 | CCTTTGGGTC | 0.98 ± 0.014
115 | CCTTTTCGTG | 1.003 ± 0.0043
116 | CCTTTTGAAC | 1.04 ± 0.028
117 | CCTTTTTCAC | 1.03 ± 0.032
118 | CCTTTTTGGG | 0.9831 ± 0.0032
119 | CGAAACGGGG | 0.983 ± 0.042
120 | CGAAACTCTG | 1 ± 0.03
121 | CGAAACTTGA | 1.02 ± 0.038
122 | CGAAAGAGAG | 0.9911 ± 0.0022
123 | CGAAAGGGTT | 0.9983 ± 0.0072
124 | CGAAATGGCG | 1.053 ± 0.0038
125 | CGAACGGTGG | 0.998 ± 0.056

Row | Sequence | switch fluorescence ratio
126 | CGAACGGTTT | 0.989 ± 0.016
127 | CGAACTCCTG | 1.05 ± 0.014
128 | CGAACTCGGA | 1.012 ± 0.0076
129 | CGAAGAGGGA | 0.9864 ± 0.0081
130 | CGAAGAGGTT | 0.98936 ± 0.00044
131 | CGAAGCTAGG | 2.16 ± 0.21
132 | CGAAGCTCTG | 1.09 ± 0.013
133 | CGAAGGGAAT | 1.03 ± 0.033
134 | CGAAGGGTGT | 0.999 ± 0.024
135 | CGAAGGTTTC | 1.034 ± 0.0023
136 | CGAATAAGCG | 0.995 ± 0.023
137 | CGAATACATA | 1.1 ± 0.011
138 | CGAATAGGCT | 1.006 ± 0.0029
139 | CGAATGGCCC | 1 ± 0.012
140 | CGAATGGGGG | 1 ± 0.029
141 | CGAATTCAGG | 1.012 ± 0.0068
142 | CGAATTGTTT | 0.962 ± 0.03
143 | CGAATTTACC | 1.19 ± 0.15
144 | CGACAAGAAC | 2.94 ± 0.18
145 | CGACAGATGT | 1.01 ± 0.018
146 | CGACAGGATG | 1.01 ± 0.033
147 | CGACATACGA | 1.56 ± 0.033
148 | CGACGAACGA | 1.54 ± 0.07
149 | CGACGAGGGG | 1 ± 0.03
150 | CGACGATACG | 0.991 ± 0.022

Row | Sequence | switch fluorescence ratio
151 | CGACGGATTT | 1.12 ± 0.029
152 | CGACGGCTGG | 1.01 ± 0.07
153 | CGACGGGCGG | 1.02 ± 0.032
154 | CGACGTGGCG | 0.981 ± 0.064
155 | CGACGTTGGT | 1.08 ± 0.043
156 | CGACTAGCGA | 1.4082 ± 0.00063
157 | CGACTGGGAG | 0.981 ± 0.026
158 | CGAGACAGGT | 1.04 ± 0.0098
159 | CGAGACGTAT | 1.09 ± 0.042
160 | CGAGAGACCG | 0.951 ± 0.013
161 | CGAGAGGCGA | 1.05 ± 0.027
162 | CGAGATAAGG | 1 ± 0.014
163 | CGAGATATTG | 0.9827 ± 0.0019
164 | CGAGCACGGG | 1.47 ± 0.053
165 | CGAGCCCTTA | 0.986 ± 0.059
166 | CGAGCTTATC | 1.2 ± 0.056
167 | CGAGCTTCGT | 1.01 ± 0.034
168 | CGAGGACTTC | 1.02 ± 0.012
169 | CGAGGCAGCA | 1.199 ± 0.009
170 | CGAGGCCTCG | 0.994 ± 0.038
171 | CGAGGCGGAG | 1.01 ± 0.028
172 | CGAGGGAGTT | 0.986 ± 0.044
173 | CGAGGGGA | 1.018 ± 0.0082
174 | CGAGGGGATG | 1.006 ± 0.0088
175 | CGAGGGGCAC | 0.997 ± 0.013

Row | Sequence | switch fluorescence ratio
176 | CGAGGGGCCA | 1 ± 0.027
177 | CGAGGGGGAT | 1.19 ± 0.27
178 | CGAGGGGGGC | 1.02 ± 0.092
179 | CGAGGGGGGG | 1.01 ± 0.025
180 | CGAGGGGGTT | 1 ± 0.02
181 | CGAGGGGTCC | 0.975 ± 0.043
182 | CGAGGGTGCA | 1.04 ± 0.021
183 | CGAGGTAGAG | 1.01 ± 0.049
184 | CGAGGTGAAG | 0.9922 ± 0.0049
185 | CGAGTAGCGG | 1.01 ± 0.036
186 | CGAGTAGTGC | 1.12 ± 0.033
187 | CGAGTATGCA | 0.981 ± 0.024
188 | CGAGTCTGCC | 1.04 ± 0.075
189 | CGAGTTAAAT | 1.01 ± 0.037
190 | CGAGTTGGAG | 1.01 ± 0.025
191 | CGAGTTTGGG | 1.001 ± 0.0031
192 | CGATAAAGGT | 1.016 ± 0.0095
193 | CGATAACCTT | 1.48 ± 0.48
194 | CGATAATGTG | 0.9727 ± 0.0063
195 | CGATATCAAT | 1.061 ± 0.0062
196 | CGATATGGGC | 1.02 ± 0.014
197 | CGATATGTCG | 1.41 ± 0.33
198 | CGATATTGGC | 0.985 ± 0.083
199 | CGATCAGTTG | 0.9853 ± 0.004
200 | CGATCCGGGA | 0.9982 ± 0.006
